Starred links: 1 amine or outer side, 2 acyl side, 3 side chain; linkers in the order of their positions; H or OH if unused. Non-standard residues stand in square brackets, D forms with d. Groups on a side chain read outwards from the residue. No end group written: not given here. *: point of attachment. C20 diacid = O=C(O)CCCCCCCCCCCCCCCCCCC(=O)*; C18 diacid = O=C(O)CCCCCCCCCCCCCCCCC(=O)*; αMePhe(2-F) = C[C@](N)(Cc1ccccc1F)C(=O)O; γGlu = O=C(O)[C@H](CCC(=O)[*:2])N[*:1]; αMeF = C[C@](N)(Cc1ccccc1)C(=O)O; 4Pal = N[C@@H](Cc1ccncc1)C(=O)O; αMeL = CC(C)C[C@](C)(N)C(=O)O; AEEA = NCCOCCOCC(=O)O; Aib = CC(C)(N)C(=O)O
Tests used:
Assay in all cases: cell-based or functional assay
[1] = molecular target: human GLP-1 receptor (human, UniProt P43220 24-463)
[2] = molecular target: human glucagon receptor (human, UniProt P47871 26-477)
[3] = molecular target: T1, human glucose-dependent insulinotropic peptide receptor (human, UniProt P48546 22-466)
T1 sequence (looked up): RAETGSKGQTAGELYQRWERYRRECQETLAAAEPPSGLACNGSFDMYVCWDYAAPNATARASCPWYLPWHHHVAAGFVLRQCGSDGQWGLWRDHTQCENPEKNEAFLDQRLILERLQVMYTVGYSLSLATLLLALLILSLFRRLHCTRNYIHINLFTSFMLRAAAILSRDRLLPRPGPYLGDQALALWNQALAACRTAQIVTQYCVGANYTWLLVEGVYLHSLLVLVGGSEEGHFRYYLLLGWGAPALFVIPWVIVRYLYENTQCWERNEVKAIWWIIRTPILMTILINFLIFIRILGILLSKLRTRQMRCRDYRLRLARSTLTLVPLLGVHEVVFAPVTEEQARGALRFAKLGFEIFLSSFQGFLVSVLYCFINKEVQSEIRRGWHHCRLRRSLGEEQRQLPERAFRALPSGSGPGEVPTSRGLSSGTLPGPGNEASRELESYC

Chain of human glucagon receptor (P47871 26-477): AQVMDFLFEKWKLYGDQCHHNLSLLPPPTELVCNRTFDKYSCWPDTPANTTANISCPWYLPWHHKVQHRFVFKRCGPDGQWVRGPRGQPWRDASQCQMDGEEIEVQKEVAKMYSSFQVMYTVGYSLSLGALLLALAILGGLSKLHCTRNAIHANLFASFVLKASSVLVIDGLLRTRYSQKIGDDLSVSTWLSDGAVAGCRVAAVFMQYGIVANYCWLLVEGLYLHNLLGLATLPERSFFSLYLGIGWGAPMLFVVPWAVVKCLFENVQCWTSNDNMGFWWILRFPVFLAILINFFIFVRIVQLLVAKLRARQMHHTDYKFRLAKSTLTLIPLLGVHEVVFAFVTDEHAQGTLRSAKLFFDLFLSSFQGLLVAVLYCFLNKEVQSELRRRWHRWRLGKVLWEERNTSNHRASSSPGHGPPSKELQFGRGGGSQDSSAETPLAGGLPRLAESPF

B1: Example 49 (peptide)
peptide: Y[Aib]EGTFISDYSI[αMeL]LDKK([AEEA-AEEA-γGlu-C18 diacid])HQ[Aib]DFVE[4Pal]LLAGGPSSGAPPPS-NH2
modifications: N-terminus assumed
SMILES: CC[C@H](C)[C@H](NC(=O)[C@H](Cc1ccccc1)NC(=O)[C@@H](NC(=O)CNC(=O)[C@H](CCC(=O)O)NC(=O)C(C)(C)NC(=O)[C@@H](N)Cc1ccc(O)cc1)[C@@H](C)O)C(=O)N[C@@H](CO)C(=O)N[C@@H](CC(=O)O)C(=O)N[C@@H](Cc1ccc(O)cc1)C(=O)N[C@@H](CO)C(=O)N[C@H](C(=O)N[C@@](C)(CC(C)C)C(=O)N[C@@H](CC(C)C)C(=O)N[C@@H](CC(=O)O)C(=O)N[C@@H](CCCCN)C(=O)N[C@@H](CCCCNC(=O)COCCOCCNC(=O)COCCOCCNC(=O)CC[C@H](NC(=O)CCCCCCCCCCCCCCCCC(=O)O)C(=O)O)C(=O)N[C@@H](Cc1c[nH]cn1)C(=O)N[C@@H](CCC(N)=O)C(=O)NC(C)(C)C(=O)N[C@@H](CC(=O)O)C(=O)N[C@@H](Cc1ccccc1)C(=O)N[C@H](C(=O)N[C@@H](CCC(=O)O)C(=O)N[C@@H](Cc1ccncc1)C(=O)N[C@@H](CC(C)C)C(=O)N[C@@H](CC(C)C)C(=O)N[C@@H](C)C(=O)NCC(=O)NCC(=O)N1CCC[C@H]1C(=O)N[C@@H](CO)C(=O)N[C@@H](CO)C(=O)NCC(=O)N[C@@H](C)C(=O)N1CCC[C@H]1C(=O)N1CCC[C@H]1C(=O)N1CCC[C@H]1C(=O)N[C@@H](CO)C(N)=O)C(C)C)[C@@H](C)CC
B1 was tested, and the “hGLP1R cAMP Rel EC50” value [1] was > 5000 nM, the “hGcgR cAMP Rel EC50” value [2] was 2860 nM and the “hGIPR cAMP Rel EC50” value [3] was 0.0156 nM.

B2: Example 50 (peptide)
peptide: Y[Aib]EGT[αMeF]ISDYSI[αMeL]LDKK([AEEA-AEEA-γGlu-C20 diacid])HQ[Aib]DFVE[4Pal]LLAGGPSSGAPPPS-NH2
modifications: N-terminus assumed
SMILES: CC[C@H](C)[C@H](NC(=O)[C@H](CO)NC(=O)[C@H](Cc1ccc(O)cc1)NC(=O)[C@H](CC(=O)O)NC(=O)[C@H](CO)NC(=O)[C@@H](NC(=O)[C@](C)(Cc1ccccc1)NC(=O)[C@@H](NC(=O)CNC(=O)[C@H](CCC(=O)O)NC(=O)C(C)(C)NC(=O)[C@@H](N)Cc1ccc(O)cc1)[C@@H](C)O)[C@@H](C)CC)C(=O)N[C@@](C)(CC(C)C)C(=O)N[C@@H](CC(C)C)C(=O)N[C@@H](CC(=O)O)C(=O)N[C@@H](CCCCN)C(=O)N[C@@H](CCCCNC(=O)COCCOCCNC(=O)COCCOCCNC(=O)CC[C@H](NC(=O)CCCCCCCCCCCCCCCCCCC(=O)O)C(=O)O)C(=O)N[C@@H](Cc1c[nH]cn1)C(=O)N[C@@H](CCC(N)=O)C(=O)NC(C)(C)C(=O)N[C@@H](CC(=O)O)C(=O)N[C@@H](Cc1ccccc1)C(=O)N[C@H](C(=O)N[C@@H](CCC(=O)O)C(=O)N[C@@H](Cc1ccncc1)C(=O)N[C@@H](CC(C)C)C(=O)N[C@@H](CC(C)C)C(=O)N[C@@H](C)C(=O)NCC(=O)NCC(=O)N1CCC[C@H]1C(=O)N[C@@H](CO)C(=O)N[C@@H](CO)C(=O)NCC(=O)N[C@@H](C)C(=O)N1CCC[C@H]1C(=O)N1CCC[C@H]1C(=O)N1CCC[C@H]1C(=O)N[C@@H](CO)C(N)=O)C(C)C
In the case of B2, the “hGLP1R cAMP Rel EC50” value [1] is reported as 41 nM, the “hGcgR cAMP Rel EC50” value [2] is reported as 371 nM and the “hGIPR cAMP Rel EC50” value [3] is reported as 0.0212 nM.

B3: Example 51 (peptide)
peptide: Y[Aib]EGT[αMePhe(2-F)]ISDYSI[αMeL]LDKK([AEEA-AEEA-γGlu-C20 diacid])HQ[Aib]DFVE[4Pal]LLAGGPSSGAPPPS-NH2
modifications: N-terminus assumed
SMILES: CC[C@H](C)[C@H](NC(=O)[C@H](CO)NC(=O)[C@H](Cc1ccc(O)cc1)NC(=O)[C@H](CC(=O)O)NC(=O)[C@H](CO)NC(=O)[C@@H](NC(=O)[C@](C)(Cc1ccccc1F)NC(=O)[C@@H](NC(=O)CNC(=O)[C@H](CCC(=O)O)NC(=O)C(C)(C)NC(=O)[C@@H](N)Cc1ccc(O)cc1)[C@@H](C)O)[C@@H](C)CC)C(=O)N[C@@](C)(CC(C)C)C(=O)N[C@@H](CC(C)C)C(=O)N[C@@H](CC(=O)O)C(=O)N[C@@H](CCCCN)C(=O)N[C@@H](CCCCNC(=O)COCCOCCNC(=O)COCCOCCNC(=O)CC[C@H](NC(=O)CCCCCCCCCCCCCCCCCCC(=O)O)C(=O)O)C(=O)N[C@@H](Cc1c[nH]cn1)C(=O)N[C@@H](CCC(N)=O)C(=O)NC(C)(C)C(=O)N[C@@H](CC(=O)O)C(=O)N[C@@H](Cc1ccccc1)C(=O)N[C@H](C(=O)N[C@@H](CCC(=O)O)C(=O)N[C@@H](Cc1ccncc1)C(=O)N[C@@H](CC(C)C)C(=O)N[C@@H](CC(C)C)C(=O)N[C@@H](C)C(=O)NCC(=O)NCC(=O)N1CCC[C@H]1C(=O)N[C@@H](CO)C(=O)N[C@@H](CO)C(=O)NCC(=O)N[C@@H](C)C(=O)N1CCC[C@H]1C(=O)N1CCC[C@H]1C(=O)N1CCC[C@H]1C(=O)N[C@@H](CO)C(N)=O)C(C)C
With B3 the “hGLP1R cAMP Rel EC50” value [1] was 24.7 nM, the “hGcgR cAMP Rel EC50” value [2] was 308 nM and the “hGIPR cAMP Rel EC50” value [3] was 0.0166 nM.

B4: Example 48 (peptide)
peptide: Y[Aib]EGTFISDYSI[αMeL]LDKK([AEEA-AEEA-γGlu-C20 diacid])HQ[Aib]DFVE[4Pal]LLAGGPSSGAPPPS-NH2
modifications: N-terminus assumed
SMILES: CC[C@H](C)[C@H](NC(=O)[C@H](Cc1ccccc1)NC(=O)[C@@H](NC(=O)CNC(=O)[C@H](CCC(=O)O)NC(=O)C(C)(C)NC(=O)[C@@H](N)Cc1ccc(O)cc1)[C@@H](C)O)C(=O)N[C@@H](CO)C(=O)N[C@@H](CC(=O)O)C(=O)N[C@@H](Cc1ccc(O)cc1)C(=O)N[C@@H](CO)C(=O)N[C@H](C(=O)N[C@@](C)(CC(C)C)C(=O)N[C@@H](CC(C)C)C(=O)N[C@@H](CC(=O)O)C(=O)N[C@@H](CCCCN)C(=O)N[C@@H](CCCCNC(=O)COCCOCCNC(=O)COCCOCCNC(=O)CC[C@H](NC(=O)CCCCCCCCCCCCCCCCCCC(=O)O)C(=O)O)C(=O)N[C@@H](Cc1c[nH]cn1)C(=O)N[C@@H](CCC(N)=O)C(=O)NC(C)(C)C(=O)N[C@@H](CC(=O)O)C(=O)N[C@@H](Cc1ccccc1)C(=O)N[C@H](C(=O)N[C@@H](CCC(=O)O)C(=O)N[C@@H](Cc1ccncc1)C(=O)N[C@@H](CC(C)C)C(=O)N[C@@H](CC(C)C)C(=O)N[C@@H](C)C(=O)NCC(=O)NCC(=O)N1CCC[C@H]1C(=O)N[C@@H](CO)C(=O)N[C@@H](CO)C(=O)NCC(=O)N[C@@H](C)C(=O)N1CCC[C@H]1C(=O)N1CCC[C@H]1C(=O)N1CCC[C@H]1C(=O)N[C@@H](CO)C(N)=O)C(C)C)[C@@H](C)CC
In the case of B4, the “hGLP1R cAMP Rel EC50” value [1] is reported as > 5000 nM, the “hGcgR cAMP Rel EC50” value [2] is reported as 1360 nM and the “hGIPR cAMP Rel EC50” value [3] is reported as 0.0166 nM.
